Laboratory results taken from publication doi:10.1101/2021.11.20.466133v3.

How the values were obtained:
[1] = substrate: [H][C@@]1(O)[C@]2([H])OP(=O)(O)OC[C@@]3([H])O[C@@]([H])(n4cnc5c(N)ncnc54)[C@]([H])(O)[C@]3([H])OP(=O)(O)OC[C@@]2([H])O[C@@]1([H])n1cnc2c(N)ncnc21; assay: purified protein; details: pH 7.5, 5 mM MgCl2
[2] = substrate: Nc1ncnc2c1ncn2[C@@H]1O[C@H](COP(=O)(O)OP(=O)(O)OP(=O)(O)O)[C@@H](O)[C@H]1O; assay: purified protein; details: pH 7.5, 37 °C, 5 mM MgCl2

| Protein | Km [1] | Km [2] |
| --- | --- | --- |
| MsPDE (Mycolicibacterium smegmatis MC2 155) (protein) MPVTTTDPKTGLLTGPDAQIAGARVDARGAADLLTAASSVSVICHVYPDADTIGAGLALAQVLAASGKHVEVSFATPAQLPESLQSLPGGHLLVAPEAMRRDADLVVTVDIPSINRLGALSGLAGPGREVLVIDHHASNQLFGTANYIDPSADSTTMLVAELLDAWGKPIDEKVAHCLYAGLTTDTGSFRWATARAHRLAARLVELGVDNASISRTLLDTHPFAWLPMLSRVLATARLLPDALDGRGFVYAVVPHDEWSEARPEEVESIVDIVRTTQQAEVAAVFKEIEPMHWSVSMRAKSVNLASVASAFGGGGHPHAAGYSATGSADDVVQALARALG | 370 µM | – |
| MsDisA (Mycolicibacterium smegmatis MC2 155) (protein) MAVKSGARSGRNVVHLARPTLRETLGRLAPGTPLRDGLERILRGRTGALIVLGYDDSVEAICDGGFVLDVRYAPTRLRELSKMDGAVVLSSDGSRILRANVQLVPDPSIPTDESGTRHRSAERTAIQTGYPVISVSHSMSIVTVYVAGERHVVPDSATILSRANQTIATLERYKGRLDEVSRQLSTAEIEDFVTLRDVMTVVQRLEMVRRISLEIDADVVELGTDGRQLKLQLDELVGDNETARELIVRDYHANPDPPTAAQVAATLEELDSLSDSELLDFTVLARVFGYPSTAEAQDSAMSSRGYRAMAAIPRLQFAHVDLLVRSFGSLQNLLAASADDLQSVDGIGSMWARHIREGLSLLAESTIADRLA | – | 480 µM |
